The source of these data is patent US11999805.

A value given as a limit tells only on which side of the number the result lay.

The target of data set [1] is SpyCas9 (S. pyogenes), Q99ZW2. Nature of the data set: cell-based or functional assay.
Another data set concerns the target T1, Peptide 15.
T1 chain: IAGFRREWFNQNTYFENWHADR

The next data set has as its target T2, Peptide 99.
T2 chain: RRSHIAWLLAMSLTWYS

A further data set concerns the target T3, Peptide 60.
T3 chain: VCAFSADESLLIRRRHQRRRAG

For the next data set, the target named is T4, Peptide 90.
T4 chain: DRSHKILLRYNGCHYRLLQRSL

In another data set the target is T5, Peptide 91.
T5 chain: VYDFYRMLSHFFLKGPSR

In data set [1], VCAFSADESLLIRRRHQRRRAG (modifications not checked) [Peptide 60] gave an IC50(uM), FRET cleavage assay of 92.2 µM and a reduced editing (compared to plasmid control), A549 GFP reporter cells of 30%.

B1: CjeCas9 (protein)
chain: MARILAFDIGISSIGWAFSENDELKDCGVRIFTKVENPKTGESLALPRRLARSARKRLARRKARLNHLKHLIANEFKLNYEDYQSFDESLAKAYKGSLISPYELRFRALNELLSKQDFARVILHIAKRRGYDDIKNSDDKEKGAILKAIKQNEEKLANYQSVGEYLYKEYFQKFKENSKEFTNVRNKKESYERCIAQSFLKDELKLIFKKQREFGFSFSKKFEEEVLSVAFYKRALKDFSHLVGNCSFFTDEKRAPKNSPLAFMFVALTRIINLLNNLKNTEGILYTKDDLNALLNEVLKNGTLTYKQTKKLLGLSDDYEFKGEKGTYFIEFKKYKEFIKALGEHNLSQDDLNEIAKDITLIKDEIKLKKALAKYDLNQNQIDSLSKLEFKDHLNISFKALKLVTPLMLEGKKYDEACNELNLKVAINEDKKDFLPAFNETYYKDEVTNPVVLRAIKEYRKVLNALLKKYGKVHKINIELAREVGKNHSQRAKIEKEQNENYKAKKDAELECEKLGLKINSKNILKLRLFKEQKEFCAYSGEKIKISDLQDEKMLEIDHIYPYSRSFDDSYMNKVLVFTKQNQEKLNQTPFEAFGNDSAKWQKIEVLAKNLPTKKQKRILDKNYKDKEQKNFKDRNLNDTRYIARLVLNYTKDYLDFLPLSDDENTKLNDTQKGSKVHVEAKSGMLTSALRHTWGFSAKDRNNHLHHAIDAVIIAYANNSIVKAFSDFKKEQESNSAELYAKKISELDYKNKRKFFEPFSGFRQKVLDKIDEIFVSKPERKKPSGALHEETFRKEEEFYQSYGGKEGVLKALELGKIRKVNGKIVKNGDMFRVDIFKHKKTNKFYAVPIYTMDFALKVLPNKAVARSKKGEIKDWILMDENYEFCFSLYKDSLILIQTKDMQEPEFVYYNAFTSSTVSLIVSKHDNKFETLSKNQKILFKNANEKEVIAKSIGIQNLKVFEKYIVSALGEVTKAEFRQREDFKK
With B1, the “reduction in cleavage-based fluorescence at 200 µM peptide, FRET assay” value with Many MPs is “Many MPs also reduced SauCas9 and CjeCas9 mediated cleavage at 200 µM with a greater than 80% reduction in fluorescence”. The “% activity, FRET cleavage assay” value with Peptide 15 is “Peptide15 significantly reduced activity of CjeCas9 and SpyCas9 and SauCas9 at 200 µM (P<0.01)”; with Peptide 99, “Peptide 99 significantly reduced activity of all three Cas9 variants at 100 and 200 µM (P<0.005)”.
In data set [1], DRSHKILLRYNGCHYRLLQRSL (modifications not checked) [Peptide 90] showed an IC50(uM), FRET cleavage assay of 114 µM and a reduced editing (compared to plasmid control), A549 GFP reporter cells of 35%.
In data set [1], LYYRIMLSCPKYYPCELVGHTS (modifications not checked) [Peptide 50] gave an IC50(uM), FRET cleavage assay of 145 µM and a reduced editing (compared to plasmid control), A549 GFP reporter cells of 30%.

B2: SauCas9 (protein)
chain: MKRNYILGLDIGITSVGYGIIDYETRDVIDAGVRLFKEANVENNEGRRSKRGARRLKRRRRHRIQRVKKLLFDYNLLTDHSELSGINPYEARVKGLSQKLSEEEFSAALLHLAKRRGVHNVNEVEEDTGNELSTKEQISRNSKALEEKYVAELQLERLKKDGEVRGSINRFKTSDYVKEAKQLLKVQKAYHQLDQSFIDTYIDLLETRRTYYEGPGEGSPFGWKDIKEWYEMLMGHCTYFPEELRSVKYAYNADLYNALNDLNNLVITRDENEKLEYYEKFQIIENVFKQKKKPTLKQIAKEILVNEEDIKGYRVTSTGKPEFTNLKVYHDIKDITARKEIIENAELLDQIAKILTIYQSSEDIQEELTNLNSELTQEEIEQISNLKGYTGTHNLSLKAINLILDELWHTNDNQIAIFNRLKLVPKKVDLSQQKEIPTTLVDDFILSPVVKRSFIQSIKVINAIIKKYGLPNDIIIELAREKNSKDAQKMINEMQKRNRQTNERIEEIIRTTGKENAKYLIEKIKLHDMQEGKCLYSLEAIPLEDLLNNPFNYEVDHIIPRSVSFDNSFNNKVLVKQEENSKKGNRTPFQYLSSSDSKISYETFKKHILNLAKGKGRISKTKKEYLLEERDINRFSVQKDFINRNLVDTRYATRGLMNLLRSYFRVNNLDVKVKSINGGFTSFLRRKWKFKKERNKGYKHHAEDALIIANADFIFKEWKKLDKAKKVMENQMFEEKQAESMPEIETEQEYKEIFITPHQIKHIKDFKDYKYSHRVDKKPNRELINDTLYSTRKDDKGNTLIVNNLNGLYDKDNDKLKKLINKSPEKLLMYHHDPQTYQKLKLIMEQYGDEKNPLYKYYEETGNYLTKYSKKDNGPVIKKIKYYGNKLNAHLDITDDYPNSRNKVVKLSLKPYRFDVYLDNGVYKFVTVKNLDVIKKENYYEVNSKCYEEAKKLKKISNQAEFIASFYNNDLIKINGELYRVIGVNNDLLNRIEVNMIDITYREYLENMNDKRPPRIIKTIASKTQSIKKYSTDILGNLYEVKSKKHPQIIKKG
For the molecule B2, in the data set with Many MPs, the “reduction in cleavage-based fluorescence at 200 µM peptide, FRET assay” value is “Many MPs also reduced SauCas9 and CjeCas9 mediated cleavage at 200 µM with a greater than 80% reduction in fluorescence”. Besides, the “% activity, FRET cleavage assay” value in the data set with Peptide 15 is “Peptide15 significantly reduced activity of CjeCas9 and SpyCas9 and SauCas9 at 200 µM (P<0.01)”; with Peptide 60 it was “Peptide 60, 90, and 91 significantly reduced activity of SauCas9 and SpyCas9 at 200 µM (P<0.005)”; with Peptide 90, “Peptide 60, 90, and 91 significantly reduced activity of SauCas9 and SpyCas9 at 200 µM (P<0.005)”; with Peptide 91 it was “Peptide 60, 90, and 91 significantly reduced activity of SauCas9 and SpyCas9 at 200 µM (P<0.005)”; with Peptide 99 it was “Peptide 99 significantly reduced activity of all three Cas9 variants at 100 and 200 µM (P<0.005)”.
The molecule LNVKIGNAHLTTIMSTMPLVLC (modifications not checked) [Peptide 63] came in with an IC50(uM), FRET cleavage assay in data set [1] of 97.9 µM.
As to RRSHIAWLLAMSLTWYS (modifications not checked) [Peptide 99], in data set [1], the IC50(uM), FRET cleavage assay came out at 48.5 µM.
Take KERRRSLMQLSVKSNSLFLGGT (modifications not checked) [Peptide 82]: the IC50(uM), FRET cleavage assay in data set [1] is more than 200 µM.
In turn, IAGFRREWFNQNTYFENWHADR (modifications not checked) [Peptide 15] returned a reduced editing (compared to plasmid control), A549 GFP reporter cells in data set [1] of 21%.
